{
  "source": "paper PMC9228142",
  "about": "“Going Retro, Going Viral: Experiences and Lessons in Drug Discovery from COVID-19”",
  "biological_target": "nsp12 (RdRp catalytic subunit);nsp7;nsp8 (SARS-CoV-2;SARS-CoV-2;SARS-CoV-2, UniProt P0DTD1;P0DTD1;P0DTD1 4393-5324;3860-3942;3943-4140, ||)",
  "assay": "EMSA",
  "settings": "protein: recombinant;recombinant;recombinant; tags: untagged (SUMO fusion cleaved, Ni2+-NTA and SEC purified);;; copies: 1;1;2; label: 5'-Cyanine 5.5",
  "data": [
    {"binder": "AAAAGAAAAGACGCGUAGUUUUCUACGCG (structured_RNA)", "note": "[GA1 RNA scaffold]", "values": [
      {"measurement": "binding result", "result": "binds"}
    ]}
  ]
}
